The data set deals with the molecule itself. Kind of data set: cross-linking.

B1: N-terminal transmembrane domain of Fukutin-I (FK1TMD), unlabelled peptide (peptide)
peptide: MQRINKNVVLALLTLTSSAFLLFQLYYYKHYLSARN
For B1, the stoichiometry N (as a rule, a count of units in the complex or per binding partner) worked out at 2.
